The DeepSol protein solubility set

Test: soluble on expression in E. coli; label from the status in PepcDB or PDB records

Soluble on expression in E. coli, soluble:
MAPDDTVNTLFQVYKTISFWKVLKNTLVIEFGRFFPWMGGKRKIYRVCLGMEIGEKTAIAYKVMPDLFFPEKILIGENSIIGYHTTILTHEYLLSEYRVGEVVIGRDVMVGANVTILPGTVIGDGAVIAAGAVVSVDVPAGSFAYGNPLIIKEKATLTLEHHHHHH
MGSSHHHHHHSSGLVPRGSHMGHGSRLPYGEEVINGIADIYRQEADHPVAVGFMNMSRPSIPEAINELAAMGVEKIIVTPVFLAHGVHTKHDIPHILGLDNGAEGHHHHEHEHEHEEFEFDGEIVYTEPLGADPRIAEIIRDRVKSAI
MAHHHHHHMPTTSMQAECDKIRSSGNECRRKFSGGNLLVVATDMDGTILDPKHRLTERTKDTLYELSTRGVHIIFATGRHHSCVHATRRDLLEHYKRRSTARGVPDSPTTGYDGFYIISSNGARVHNPNGDLIFLRDLDSDVVRVLYERFGIRDHGDDPRKVISVSAYQTEKWWINRTIMSDEESLAMFGVVPELHPDLKEFPTTGVGKVCFRCYDRDILHQYEAEIKEIFHGRATAVMSSEICLDVMAAEVSKAAALREIGRILNFDPEREAIAFGDSMNDGDMLCSVAKGCIMDNGQSRLKESLPHLEVVGSSSEDGVARKLQEVFQIFHE
SLHPDTILHNGRVTTLDRGNPNATAVAIKDGLFVEVGSDAEVMALAGSETKIIDLKGKRVLPGLIDNHTHVIRGGLNFNMELRWDGVRSLADAMYMLKRQVAITPAPQWVRVVGGFTEHQFVEKRLPTIEEINAVAPDTPVFLLHLYDRALLNGAALRAVGYTKDTPNPPGGEITRDANGNPTGLLLAKPNAGILYSTLAKGPKLPLDYQVNSTRHFMRELNRLGVTGVIDAGGGFQNYPDDYEVIQKLSDENQMTVRLAYNLFTQKPKQEKEDFLNWTSSVKYKQGNDYFRHNGAGEMLVFSAADFEDFRQPRPDMPPEMEGELEDVVRILAENRWPWRLHATYDETISRALDVFEKVNRDIPLEGLNWFFDHAETISDRSIDRIAALGGGIATQHRMAYQGEYFVERYGQGVAEATPPIARMLEKGVNVSAGTDATRVASYNPWVSLFWMVTGKTVGGMQLYPRANCLDRETALRMWTEKVTWFSNEEGKKGRIEKGQFADLVVPDKDYFSCAEDEISFLTSELTMVGGKIVYGAGDFRVLDESNIPPAMPDWSPVRTFGGYAAWGEPQGAGKNSLRRAAITSCGCASDCGVHGHDHAGAWTSKLPIADLKGFFGALGCSCWAV
MNRMMALVMAGGRGTRLAIDCEKPLLEVAGRPMIDHVLEALESATGVDGIIVVTSPHTPMTEDHVRGRHPIFRASGGGYVEDLREVLSHLEESYHEPLLVINSDLPLVRPSTIDWIISSYHSCPEPAMCVAVPDDLCRRHGLDFSGSLDGLVPCGVNILMSKNRVQEQRILEASMLELAVNINSCRDLKVLEKILGEIDGREEAHKRGREVLELEHHHHHH
SNAMLHIDDAMIEDAVTPQAAQEVLHAAFLDFGRGSAAMQRRVRTEAGGVKLSTLGAVIPGQGVAGAKVYTTIKGQFQFVILLFSAADGRPLATCDAGTLTRKRTAACTVLAAGALARPRSSVLGLFGAGTQGAEHAAQLSARFALEAILVHDPYASPEILERIGRRCGVPARMAAPADIAAQADIVVTATRSTTPLFAGQALRAGAFVGAIGSSLPHTRELDDEALRRARAVVVEWREQTLSEAGDLVLAAPDTGLDAKVVELADVLAGRAAARQADEDIVIYKSVGVGLEDVALAGYAYRRLAAQRGWPAP
MKKIIETQRAPGAIGPYVQGVDLGSMVFTSGQIPVCPQTGEIPADVQDQARLSLENVKAIVVAAGLSVGDIIKMTVFITDLNDFATINEVYKQFFDEHQATYPTRSCVQVARLPKDVKLEIEAIAVRSA
MAKIYYDEDASLDILKDKVIAILGYGSQGHAHALNLRDSGLNVIIGLHEGSRSREKAKADGFEVYTPREAAKRADIIMFLIPDTVQPEVYKNEVEPELNSSKTLAFAHGFNIHFRQIVPPKDVDVFMVAPKGPGHLVRWMYTEGKGVPALVAIHQDASGTCKDKALAYAKGIGATRAGVIETTFKEETETDLFGEQMVLCGGVTALIKAGFETLVNAGYQPEVAYFECLHELKLIVDLIYEHGISGMRYSISDTAKYGDVTRGERIYKVVKPVMEKTLEEIQKGEFAREWILENKAGRPVYYALLERDREHLVEKVGEELRKMMPWLGKKELK

Soluble on expression in E. coli, not soluble:
MWIPSKLTRPGRLHNAIVRPRVLDLLQQAPYYKLVLFRSPAGYGKTTMAAQWLSDKPNVGWYSIDDSDNDGFRFVNYLLQALNKATNFSCSNAQKLAEKRQISSLRSLFSEVFAEMADFHQECYVVLDDYHLITNDEIHESMRFFLKHMPDNLTVVVTSRAAPPLGTANLRVRDLMIEIGNEMLAFDTEETTRFFNQRIADGIDEDMANSLRTYVEGWPSAMQLIALQAQHQNRTLAQTVESVSQFNHAHLWDYLVEEVFDLLDHETRHFLMQVSVLDHFNDELVFALTQREDALGLIESLNRYGLFIYPLEGEHNWFRFHNLFGEFLSHERQARIPQQEKDLHRNAAVAWLQQKSPHQAIHHAQKSNDKDLVVEILNEFGWKMFNQGELSTLEHAINKLDAELLFSHPKLTMLRAWLAQSQHRYNQVGQLLEEAEEEHKKRNIELDIHYQGQA
MASQLTDAFARKFYYLRLSITDVCNFRCTYCLPDGYKPSGVTNKGFLTVDEIRRVTRAFARLGTEKVRLTGGEPSLRRDFTDIIAAVRENDAIRQIAVTTNGYRLERDVASWRDAGLTGINVSVDSLDARQFHAITGQDKFNQVMAGIDAAFEAGFEKVKVNTVLMRDVNHHQLDTFLNWIQHRPIQLRFIELMETGEGSELFRKHHISGQVLRDELLRRGWIHQLRQRSDGPAQVFCHPDYAGEIGLIMPYEKDFCATCNRLRVSSIGKLHLCLFGEGGVNLRDLLEDDTQQQALEARISAALREKKQTHFLHQNNTGITQNLSYIGGLEHHHHHH
MGSDKIHHHHHHMLRSMYSGISGLKNFQTKLDVVGNNIANVNTFGYKKGRVTFKDLVSQSVGSASGNGGGVGGANPKQVGLGASMATVDSVSNQGALQNTGRTLDVAISGEGFFQIQTADGIRYARSGNFYTDLDGNLVTGDGNYVIGSDNAGPLGQPTIPLGGGYKTINIPANAQNLSIGKDGLVTYVDPAGTLQQAGYISLANFPNPGGLEKSGSNMYSISQNSGQPTSATPSTNGLGQLTSGTLEMSNVDLSEEFTEMIIAQRGFQANTRIITTSDQILEELVNLKR
MAVYANTSVQDFYEFWLEEVKKKSLSYNSYYSFKKTVQNYILPLYGRLSMGKLRKNHVKRIYKKTYETSPSVAKIVKTVLTTSFKYALRYGYVEEDYVTGLKWNRVILEHHHHHH
MYKAIIMPVDVFEMELSDKAVRHAEFLAQDDGVIHLLHVLPGSASLSLHRFAADVRRFEEHLQHEAEERLQTMVSHFTIDPSRIKQHVRFGSVRDEVNELAEELGADVVVIGSRNPSISTHLLGSNASSVIRHANLPVLVVR
MAHHHHHHMADWQGWYQRMLDVHNRNVSLRCRICDLQRLDGNGVQFVDMQTERRLRILAQHRVGMGVLKLDADKYEDQADNVTFGTTKLSELLADARKAQLGEEYWPSVELKVRKPSGQSKAHYSLIDNERIEKRSRELYEKYRDAKKRSLFVTPMETWLEVKGMQVRKSVDNADEDGYTLDALQDMMDGDDEDKV
MSQLFVRTGITFDSSQQALAHIGKEMLAKGVVHDSYPQALVEREASFPTGIALERHAVAIPHCEAVHAKSPAIYLIRPDKPVMFQQADDDEEIAVSLIIALIVENPAAQLKLLRRLFSELQNPSTLDALLSAPDAELAIRFQETILEPEQCVQV
EMKVLVPDTSVIVDGRLTQYLERLKEKVKVVVPEAVVAEIEHQANAGKAIGHTGLEELKKLREIANEGKILLEFYGERPDLWQIRRAKSGEIDNMVREVARELNGVLVTGDQIQRDIAIAKGIDVIYLEAKREPRMRLEDFFDEE
MPMKDVLSRIGIGSATVDTVLPTDSVRAGESVRAEVHVEGGSTDQNIDSVYFALETEYKSDEGYKDAIIDQWQLTEPFTIEAGEKRRFETTIDIPRETPVTTRSTAVEIETGLDISMAVDPGDEDYIEVEPTHRTQAVFDALDSLGFSLHASACEAAAGSLFTTSANFAQEFEFRPQRGEFTGAVDEVEIVPVFDDDRLTVYLEVDRSAGLLSEVTDADERHTKLTIEAPDPDAIEPRLAEAIRELS
